Results reported in publication PMC6158044 (Molecular microbiology, 2018).

What was measured:
PrgB246-558 = PrgB246-558 (Enterococcus faecalis, UniProt Q04112); experiment: isothermal titration calorimetry; format: binding
PrgB188-1233 = PrgB188-1233 (Enterococcus faecalis, UniProt Q04112); experiment: isothermal titration calorimetry; format: binding
PrgB188-1233 monomer = PrgB188-1233 monomer (Enterococcus faecalis (plasmid pCF10), UniProt Q04112 188-1233); experiment: ITC
PrgB188-1233 dimer = PrgB188-1233 dimer (Enterococcus faecalis (plasmid pCF10), UniProt Q04112 188-1233); experiment: ITC
[1] = target: PrgB246-558 adhesin domain (Enterococcus faecalis (plasmid pCF10), UniProt Q04112 246-558); experiment: ITC

## O=P(O)(O)OCC(O)CO (centres unmarked) [glycerol phosphate]
PrgB246-558
  Kd: 276 ± 71.2 µM
PrgB188-1233
  Kd: 309 ± 55.3 µM

B1: 19-bp dsDNA (dsDNA)
DNA 1: GGGGGCGGGGCGGGCGGCG
DNA 2: CGCCGCCCGCCCCGCCCCC
PrgB188-1233 monomer
  Kd: 364 ± 73.8 µM
PrgB188-1233 dimer
  Kd: 164 ± 42.4 µM
[1]
  Kd: 46.2 ± 14.5 µM
